The test system of data set [1] is biotinyl-Phe-oxazolone. Kind of data set: self-aminoacylation, catalytic enhancement (BFO) (fold over background); higher = more active; k-Seq, kA / k0A0; sequences stand for … in GGGAAUGGAUCCACAUCUACGAAUUC…UUCACUGCAGACUUGACGAAGCUG
In short, it runs like this: (§1)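 Catalytic enhancement equals the median kA over the uncatalyzed rate, the latter read from the low-activity peak of a bimodal Gaussian fit. Values of kA came from fitting each sequence's fraction reacted to a pseudo-first-order model, with 1000 bootstraps. Reacted RNA was captured with streptavidin and quantified by triplicate qPCR and Illumina sequencing after 90 minutes at room temperature with 2–1250 μM biotinyl-aminoacyl-oxazolone and 0.43 μM mutagenized RNA pools bearing a 21-nt variable region.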

Data set [2] concerns biotinyl-Ile-oxazolone. Kind of data set: self-aminoacylation, catalytic enhancement (BIO) (fold over background); higher = more active; k-Seq, kA / k0A0; sequences stand for … in GGGAAUGGAUCCACAUCUACGAAUUC…UUCACUGCAGACUUGACGAAGCUG
In short, it runs like this: as §1

In data set [3] the test system is biotinyl-Met-oxazolone. Put plainly: self-aminoacylation, catalytic enhancement (BMO) (fold over background); higher = more active; k-Seq, kA / k0A0; sequences stand for … in GGGAAUGGAUCCACAUCUACGAAUUC…UUCACUGCAGACUUGACGAAGCUG
In short, it runs like this: as §1

Data set [4] has as its system biotinyl-Val-oxazolone. Kind of data set: self-aminoacylation, catalytic enhancement (BVO) (fold over background); higher = more active; k-Seq, kA / k0A0; sequences stand for … in GGGAAUGGAUCCACAUCUACGAAUUC…UUCACUGCAGACUUGACGAAGCUG
In short, it runs like this: as §1

Data set [5] concerns biotinyl-Leu-oxazolone. Put plainly: self-aminoacylation, catalytic enhancement (BLO) (fold over background); higher = more active; k-Seq, kA / k0A0; sequences stand for … in GGGAAUGGAUCCACAUCUACGAAUUC…UUCACUGCAGACUUGACGAAGCUG
The essentials:
as §1

The test system of data set [6] is biotinyl-Trp-oxazolone. Kind of data set: self-aminoacylation, catalytic enhancement (BWO) (fold over background); higher = more active; k-Seq, kA / k0A0; sequences stand for … in GGGAAUGGAUCCACAUCUACGAAUUC…UUCACUGCAGACUUGACGAAGCUG
The essentials:
as §1

Variants at the floor of the assay were thinned out.

As to “CUACUUCAAACAAUCGGUUGG [Fam1A.1 aminoacylation ribozyme variant]”, the self-aminoacylation in data set [1] turned out to be 3.55; in data set [2] it was 0.843; in data set [3], 0.619; in data set [4], 0.812; in data set [5] it was 0.788; in data set [6], 1.82.
Turning to “CUACUUCAAACAAUCGGUUUU [Fam1A.1 aminoacylation ribozyme variant]”, the self-aminoacylation in data set [1] is 2.35; in data set [2], 1.31; in data set [3] it was 0.931; in data set [4], 1.26; in data set [5] it was 1.1; in data set [6], 1.44.
Consider “CUACUUCAAACAAUCGUUCGG [Fam1A.1 aminoacylation ribozyme variant]”, for which the self-aminoacylation in data set [1] amounted to 0.675; in data set [2], 0.787; in data set [3], 0.641; in data set [4], 0.623; in data set [5], 0.637; in data set [6] it was 0.473.
Take “CUACUUCAAACAAUCGUUCUU [Fam1A.1 aminoacylation ribozyme variant]”: the self-aminoacylation stood at 0.947 in data set [1]; 0.712 in data set [2]; 0.716 in data set [3]; 0.729 in data set [4]; 0.64 in data set [5]; 0.574 in data set [6].
As to “CUACUUCAAACAAUCGUUGUG [Fam1A.1 aminoacylation ribozyme variant]”, the self-aminoacylation in data set [1] was 1.69; in data set [2], 1.17; in data set [3], 1.68; in data set [4] it was 1.15; in data set [5], 1.7; in data set [6] it was 1.38.
With “CUACUUCAAACAAUCUGGCUG [Fam1A.1 aminoacylation ribozyme variant]”, the self-aminoacylation was determined as 0.69 in data set [1]; 0.963 in data set [2]; 0.844 in data set [3]; 0.963 in data set [4]; 1.02 in data set [5]; 0.664 in data set [6].
“CUACUUCAAACAAUGCGUCUG [Fam1A.1 aminoacylation ribozyme variant]”: the self-aminoacylation in data set [1] came to 0.887; in data set [2], 1.17; in data set [3], 1.09; in data set [4] it was 0.887; in data set [5], 0.975; in data set [6] it was 0.738.
Consider “CUACUUCAAACAAUGGGCCUG [Fam1A.1 aminoacylation ribozyme variant]”, for which the self-aminoacylation in data set [1] came to 1.67; in data set [2], 1.4; in data set [3], 1.25; in data set [4] it was 1.16; in data set [5] it was 1.19; in data set [6], 0.896.
For the sequence “CUACUUCAAACAAUGUGUCUG [Fam1A.1 aminoacylation ribozyme variant]”, the self-aminoacylation turned out to be 0.725 in data set [1]; 0.838 in data set [2]; 0.662 in data set [3]; 0.848 in data set [4]; 0.716 in data set [5]; 0.583 in data set [6].
“CUACUUCAAACAAUUGAUCUG [Fam1A.1 aminoacylation ribozyme variant]”: the self-aminoacylation was found to be 0.576 in data set [1]; 0.832 in data set [2]; 0.765 in data set [3]; 0.688 in data set [4]; 0.642 in data set [5]; 0.543 in data set [6].
Take “CUACUUCAAACAAUUGGUCGG [Fam1A.1 aminoacylation ribozyme variant]”: the self-aminoacylation in data set [1] came out at 0.858; in data set [2] it was 1.25; in data set [3], 0.91; in data set [4], 1.11; in data set [5] it was 1.18; in data set [6] it was 0.932.
With “CUACUUCAAACACUCAGUCUG [Fam1A.1 aminoacylation ribozyme variant]”, the self-aminoacylation in data set [1] came to 1.02; in data set [2], 0.798; in data set [3], 0.727; in data set [4], 0.732; in data set [5] it was 0.685; in data set [6] it was 0.601.
As to “CUACUUCAAACACUCGGCCUG [Fam1A.1 aminoacylation ribozyme variant]”, the self-aminoacylation in data set [1] is 1.38; in data set [2], 1.96; in data set [3] it was 1.59; in data set [4], 2.38; in data set [5] it was 2.05; in data set [6], 2.01.
For the sequence “CUACUUCAAACACUCGGUCUC [Fam1A.1 aminoacylation ribozyme variant]”, the self-aminoacylation was determined as 0.739 in data set [1]; 0.998 in data set [2]; 0.794 in data set [3]; 0.808 in data set [4]; 0.953 in data set [5]; 0.9 in data set [6].
For “CUACUUCAAACAUUCGGUCUA [Fam1A.1 aminoacylation ribozyme variant]”, the self-aminoacylation was found to be 0.783 in data set [1]; 1.03 in data set [2]; 0.882 in data set [3]; 1.02 in data set [4]; 0.766 in data set [5]; 0.89 in data set [6].
As to “CUACUUCAAACAUUCGGUUUG [Fam1A.1 aminoacylation ribozyme variant]”, the self-aminoacylation was 0.613 in data set [1]; 1.17 in data set [2]; 1.05 in data set [3]; 1.2 in data set [4]; 0.962 in data set [5]; 1.43 in data set [6].
Take “CUACUUCAAACAUUCUGUCUG [Fam1A.1 aminoacylation ribozyme variant]”: the self-aminoacylation in data set [1] was 0.851; in data set [2] it was 0.822; in data set [3] it was 0.7; in data set [4], 0.79; in data set [5], 0.727; in data set [6], 0.543.
With “CUACUUCAAACCACCGGUCUG [Fam1A.1 aminoacylation ribozyme variant]”, the self-aminoacylation in data set [1] was 0.963; in data set [2], 1.03; in data set [3] it was 1.09; in data set [4] it was 0.954; in data set [5], 0.795; in data set [6], 1.25.
As for “CUACUUCAAACCAUCCGUCUG [Fam1A.1 aminoacylation ribozyme variant]”, the self-aminoacylation in data set [1] was 0.573; in data set [2], 0.891; in data set [3] it was 0.891; in data set [4], 1.14; in data set [5], 0.721; in data set [6], 0.802.
As for “CUACUUCAAACCAUCGAUCUG [Fam1A.1 aminoacylation ribozyme variant]”, the self-aminoacylation stood at 0.733 in data set [1]; 0.685 in data set [2]; 0.614 in data set [3]; 0.777 in data set [4]; 0.529 in data set [5]; 0.581 in data set [6].
As for “CUACUUCAAACCAUCGGUCUC [Fam1A.1 aminoacylation ribozyme variant]”, the self-aminoacylation stood at 0.936 in data set [1]; 0.708 in data set [2]; 0.555 in data set [3]; 0.72 in data set [4]; 0.496 in data set [5]; 0.731 in data set [6].
For “CUACUUCAAACCAUCGUUCUG [Fam1A.1 aminoacylation ribozyme variant]”, the self-aminoacylation in data set [1] was determined as 0.66; in data set [2], 0.689; in data set [3], 0.525; in data set [4] it was 0.59; in data set [5], 0.553; in data set [6], 0.478.
On to “CUACUUCAAACCGUCGGUCUG [Fam1A.1 aminoacylation ribozyme variant]”, for which the self-aminoacylation was 0.289 in data set [1]; 0.831 in data set [2]; 0.847 in data set [3]; 0.917 in data set [4]; 0.71 in data set [5]; 0.872 in data set [6].
Regarding “CUACUUCAAACGAUCAGUCUG [Fam1A.1 aminoacylation ribozyme variant]”, the self-aminoacylation was 1.22 in data set [1]; 0.633 in data set [2]; 0.593 in data set [3]; 0.751 in data set [4]; 0.549 in data set [5]; 0.734 in data set [6].
As for “CUACUUCAAACGCUCGGUCUG [Fam1A.1 aminoacylation ribozyme variant]”, the self-aminoacylation in data set [1] was 0.793; in data set [2], 0.741; in data set [3], 0.592; in data set [4], 0.828; in data set [5] it was 1.09; in data set [6], 0.637.

The values are drawn from the supplement of paper PMC9233669.
